Consider 44 molecules from patent US20150246947A1 (BAXALTA, published 2015).

The labels stand for the following.
T1: human Protein S (UniProt P07225 42-676)
T1 chain: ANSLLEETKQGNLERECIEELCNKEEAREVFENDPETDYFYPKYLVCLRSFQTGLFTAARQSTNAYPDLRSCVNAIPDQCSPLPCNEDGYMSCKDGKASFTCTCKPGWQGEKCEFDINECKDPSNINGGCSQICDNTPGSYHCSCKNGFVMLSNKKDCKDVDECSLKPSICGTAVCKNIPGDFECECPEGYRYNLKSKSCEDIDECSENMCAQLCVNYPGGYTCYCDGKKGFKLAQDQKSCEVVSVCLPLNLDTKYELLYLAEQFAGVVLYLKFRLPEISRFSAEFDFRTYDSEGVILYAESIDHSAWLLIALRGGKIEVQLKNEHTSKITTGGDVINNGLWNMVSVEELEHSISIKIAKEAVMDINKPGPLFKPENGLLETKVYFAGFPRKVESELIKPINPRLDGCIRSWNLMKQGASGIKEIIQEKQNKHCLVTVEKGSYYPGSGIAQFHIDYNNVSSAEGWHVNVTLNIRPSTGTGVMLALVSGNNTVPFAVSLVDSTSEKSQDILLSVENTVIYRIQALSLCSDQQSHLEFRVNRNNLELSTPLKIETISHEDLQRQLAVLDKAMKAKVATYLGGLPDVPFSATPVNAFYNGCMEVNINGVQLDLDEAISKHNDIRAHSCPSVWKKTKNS

B1: JBS3171 (peptide)
chain: Ac-TCLVSAGWYDYNCDHYREFT-NH2
modifications: disulfide 2-13
SMILES: CC(=O)N[C@H](C(=O)N[C@H]1CSSC[C@@H](C(=O)N[C@@H](CC(=O)O)C(=O)N[C@@H](Cc2c[nH]cn2)C(=O)N[C@@H](Cc2ccc(O)cc2)C(=O)N[C@@H](CCCNC(=N)N)C(=O)N[C@@H](CCC(=O)O)C(=O)N[C@@H](Cc2ccccc2)C(=O)N[C@H](C(N)=O)[C@@H](C)O)NC(=O)[C@H](CC(N)=O)NC(=O)[C@H](Cc2ccc(O)cc2)NC(=O)[C@H](CC(=O)O)NC(=O)[C@H](Cc2ccc(O)cc2)NC(=O)[C@H](Cc2c[nH]c3ccccc23)NC(=O)CNC(=O)[C@H](C)NC(=O)[C@H](CO)NC(=O)[C@H](C(C)C)NC(=O)[C@H](CC(C)C)NC1=O)[C@@H](C)O
B2: JBS3168 (peptide)
chain: Ac-TGLCVSAGWYDYNCDHYREFT-NH2
modifications: disulfide 4-14
SMILES: CC(=O)N[C@H](C(=O)NCC(=O)N[C@@H](CC(C)C)C(=O)N[C@H]1CSSC[C@@H](C(=O)N[C@@H](CC(=O)O)C(=O)N[C@@H](Cc2c[nH]cn2)C(=O)N[C@@H](Cc2ccc(O)cc2)C(=O)N[C@@H](CCCNC(=N)N)C(=O)N[C@@H](CCC(=O)O)C(=O)N[C@@H](Cc2ccccc2)C(=O)N[C@H](C(N)=O)[C@@H](C)O)NC(=O)[C@H](CC(N)=O)NC(=O)[C@H](Cc2ccc(O)cc2)NC(=O)[C@H](CC(=O)O)NC(=O)[C@H](Cc2ccc(O)cc2)NC(=O)[C@H](Cc2c[nH]c3ccccc23)NC(=O)CNC(=O)[C@H](C)NC(=O)[C@H](CO)NC(=O)[C@H](C(C)C)NC1=O)[C@@H](C)O

Positions of bridges follow the written chain, without caps; N, C: chain ends.

The first experiment deals with T1, human Protein S. Kind of experiment: LANCE competition. A digest of the protocol: (§1)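 A homogeneous time-resolved FRET (LANCE) competition format paired europium-labelled Protein S and ULight-labelled streptavidin with a biotinylated tracer peptide, against which unlabelled test peptide was titrated three-fold. With final concentrations of 10 nM Protein S, 100 nM streptavidin and 300 nM tracer in 50 µl, or 2 nM Protein S and 60 nM tracer when a Tecan F500 was used, samples stood 1 hour at room temperature. Emission was read at 665 nm with excitation at 340 nm. Non-linear regression of these signals gave the IC50.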
Ac-DDEVSIGWYDYNTDEYVEFW-NH2 [JBS3295] yielded an IC50 of 14.6 nM.
On to Ac-EYTVSAGWYDYNKDTYEEFK-NH2 [JBS3220], for which the IC50 stood at 3.5 nM. This IC50 is about 4.2-fold lower than that of the molecule before.
On the same count and under the same terms, as for B1, the figure is 336 nM; as for Ac-YGLVSAGWYDYNFDHYREFT-NH2 [JBS2928], 3.7 nM.
Take MEYYVSAGWYDYNTDTYYEFE [JBS3215]: the half-inhibitory concentration (IC50) is 0.8 nM.
Same read-out and setting: as for Ac-EYYVSAGWYDYNTDTYYEFD-NH2 [JBS3231], the figure is 1.5 nM; as for Ac-EYYVSAGWYDYNTDRYYEFY-NH2 [JBS3238], 1.3 nM; as for Ac-EYYVSAGWYDYNNDTYNEFW-NH2 [JBS3243], 1.3 nM.
On to B2, for which the IC50 is 604 nM.
Ac-EYYVSAGWYDYNSDTYQEFI-NH2 [JBS3244] returned an IC50 of 4.7 nM. This IC50 is about 130-fold lower than that of the molecule before.
For the molecule MEYYVSAGWYDYNTDTYYEFE [JBS3224], the IC50 turned out to be 1.3 nM.
Ac-EEYVSAGWYDMNRDTYTEFY-NH2 [JBS3252] had an IC50 of 12.8 nM. Against the preceding molecule, the IC50 is about 9.8-fold higher.
Ac-EYTVSAGWYDYNNDIYFEFY-NH2 [JBS3219] displayed an IC50 of 1.1 nM.
On to TGCLVSAGWYDYNCDHYREFT [JBS3169], for which the IC50 turned out to be 544 nM. Compared with the last molecule, the IC50 is about 490-fold higher.
Take Ac-SATVSAGWYDYNKDVYFEFE-NH2 [JBS3273]: the IC50 came to 2.3 nM.
Ac-TYYVSAGWYGYNNDRYYEFY-NH2 [JBS3250] displayed an IC50 of 22.7 nM.
Molecule Ac-SGLVSAGWYDYNFDSYREFT-NH2 [JBS3185] displayed an IC50 of 7.2 nM. Against the preceding molecule, the IC50 is about 3.2-fold lower.
Same read-out and setting: as for Ac-EYYVSAGWYDYNYDVYTEFE-NH2 [JBS3248], the figure is 3.7 nM.
Consider Ac-GLVSAGWYDYNFDHYREF-NH2 [JBS3182], for which the half-inhibitory concentration (IC50) stood at 20.9 nM.
Same read-out and setting: with Ac-TCLVSAGWYDYNFDCYREFT-NH2 (disulfide 2-15 (inferred); not fully specified) [JBS3173] the figure was 208 nM; with Ac-EYYVSAGWYDYNNDTYYEFE-NH2 [JBS3233], 0.9 nM; with Ac-TGLVSAGWYDYNFDHYREF-NH2 [JBS3181], 9.5 nM.

The next experiment deals with T1, human Protein S. The experiment is described as follows: LANCE competition. This is another data set of the same source. In short, it runs like this:
as §1
Ac-EVEVSAGWYDYNDDKYYEFG-NH2 [JBS3276]: the IC50 was 3 nM. That is a single-digit nanomolar value.
Molecule Ac-EGYVSAGWYDYNKDIYLEFE-NH2 [JBS3259] returned an IC50 of 3.7 nM. This IC50 and that of the molecule before are within 1.5-fold of each other.
Same read-out and setting: with Ac-EYIVEAGWYDINEDKYLEFY-NH2 [JBS3264] the figure was 2 nM; with Ac-ESIVSAGWYDYNTDEYYEFF-NH2 [JBS3267], 1.7 nM.
The molecule Ac-EVEVSAGWYEYNTDTYYEFW-NH2 [JBS3282] had a half-inhibitory concentration (IC50) of 4.1 nM.
Ac-YGIVEAGWYEYNTDEYIEFW-NH2 [JBS3256]: the IC50 is 1.7 nM.
Ac-ESYVSAGWYDYNIDAYYEFY-NH2 [JBS3261] registered a half-maximal inhibitory concentration (IC50) of 2 nM. The IC50 values of the last two molecules are within 1.5-fold of each other.
For the molecule Ac-EVHVSAGWYDYNNDTYYEFG-NH2 [JBS3275], the IC50 stood at 1.2 nM.
Ac-KVEVSAGWYDYNKDVYYEFE-NH2 [JBS3299] displayed a half-maximal inhibitory concentration (IC50) of 2 nM.
Molecule Ac-HYNVSAGWYDYNNDEYFEFY-NH2 [JBS3307] returned a concentration for half-maximal inhibition (IC50) of 1.4 nM.
Ac-FEYVSAGWYDYNTDTYYEFY-NH2 [JBS3271]: the half-maximal inhibitory concentration (IC50) was found to be 1.9 nM.
In the case of Ac-NMYVSAGWYNYNEDTYEEFY-NH2 [JBS3289], the IC50 was 2.5 nM.
Ac-NMEVSAGWYDYNSDTYHEFW-NH2 [JBS3290] yielded a 50% inhibitory concentration (IC50) of 3.4 nM.
Same read-out and setting: as for Ac-RYIVSAGWYDIIQDTYFEFY-NH2 [JBS3285], the figure is 1.2 nM; as for EYYVSAGWYDYNTDTYYEFEC [JBS3320], 0.5 nM.
The molecule Ac-KMHVSIGWYDYNNDIYYEFY-NH2 [JBS3298] had an IC50 of 1 nM. Compared with the last molecule, the IC50 is about 2-fold higher.
The same measure, in the same setting: with Ac-EYSVSAGWYDYNTDVYYEFE-NH2 [JBS3266] the figure was 1.6 nM.
In turn, Ac-FEYVIAGWYDYNTDTYHEFN-NH2 [JBS3272] showed a half-inhibitory concentration (IC50) of 1.4 nM.
The molecule Ac-EFIVSAGWYDYNKDTYIEFE-NH2 [JBS3292] gave an IC50 of 2.7 nM. Compared with the last molecule, the IC50 is about 1.9-fold higher.
The same measure, in the same setting: as for Ac-FGIISAGWYDYNEDAYSEFY-NH2 [JBS3270], the figure is 1.2 nM; as for Ac-VFYVSAGWYDYNDDKYYEFW-NH2 [JBS3304], 1.5 nM.
In the case of Ac-FGIVSAGWYDYNTDTYYEPY-NH2 [JBS3269], the IC50 came out at 56.9 nM.
